From US20240269276A1
Read-outs that look alike come from different tables or passages of the source.

How the values were obtained:
[1] = biological target: human PD-L1 on CHO-K1 cells overexpressing human PD-L1 (human) (UniProt Q9NZQ7); experiment: flow cytometry on CHO-K1 cells overexpressing human PD-L1 (CHO-K1/hPD-L1); isotype control [continued) D]
[2] = biological target: human PD-L1 on CHO-K1 cells overexpressing human PD-L1 (human) (UniProt Q9NZQ7); experiment: flow cytometry on CHO-K1 cells overexpressing human PD-L1 (CHO-K1/hPD-L1); isotype control, EC50 given as N.A.
[3] = biological target: cynomolgus monkey PD-L1 on CHO-K1 cells overexpressing cynomolgus monkey PD-L1 (cynomolgus monkey) (UniProt G7PSE7); experiment: flow cytometry on CHO-K1 cells overexpressing cynomolgus monkey PD-L1 (CHO-K1/cynoPD-L1); isotype control, EC50 given as N.A.
[4] = biological target: cynomolgus monkey PD-L1 on CHO-K1 cells overexpressing cynomolgus monkey PD-L1 (cynomolgus monkey) (UniProt G7PSE7); experiment: as above; remark: listed apart in the source
[5] = biological target: cynomolgus monkey PD-L1 on CHO-K1 cells overexpressing cynomolgus monkey PD-L1 (cynomolgus monkey) (UniProt G7PSE7); experiment: as above; remark: listed apart in the source
[6] = biological target: human PD-L1 on CHO-K1 cells overexpressing human PD-L1 (human) (UniProt Q9NZQ7); experiment: flow cytometry on CHO-K1 cells overexpressing human PD-L1 (CHO-K1/hPD-L1); isotype control, fit value printed for a curve that stays at the baseline [continued) D]

Sequence of cynomolgus monkey PD-L1 on CHO-K1 cells overexpressing cynomolgus monkey PD-L1 (cynomolgus monkey) (G7PSE7 entry or part of it limits assumed): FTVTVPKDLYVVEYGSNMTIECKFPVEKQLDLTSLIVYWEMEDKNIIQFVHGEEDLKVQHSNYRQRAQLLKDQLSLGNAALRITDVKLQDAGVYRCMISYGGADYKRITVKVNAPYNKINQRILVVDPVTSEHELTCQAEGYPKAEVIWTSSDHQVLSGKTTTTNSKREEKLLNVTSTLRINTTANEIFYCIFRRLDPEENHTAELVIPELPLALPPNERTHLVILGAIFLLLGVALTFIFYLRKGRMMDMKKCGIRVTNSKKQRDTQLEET
Sequence of human PD-L1 on CHO-K1 cells overexpressing human PD-L1 (human) (Q9NZQ7 19-290): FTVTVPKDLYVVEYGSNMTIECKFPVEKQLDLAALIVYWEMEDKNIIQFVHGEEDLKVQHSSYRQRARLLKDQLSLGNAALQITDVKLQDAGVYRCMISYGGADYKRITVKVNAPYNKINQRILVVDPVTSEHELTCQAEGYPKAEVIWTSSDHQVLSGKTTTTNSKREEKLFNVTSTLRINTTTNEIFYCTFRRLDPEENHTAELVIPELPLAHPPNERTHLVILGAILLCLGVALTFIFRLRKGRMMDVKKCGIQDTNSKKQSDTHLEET

hIgG1 (antibody)
Maximum MFI [1]: 595 MFI | Maximum MFI [2]: 86 MFI | Maximum MFI [3]: 123 MFI | Maximum MFI [4]: 112 MFI | Maximum MFI [5]: 125 MFI | EC50 [6]: 75.9 nM
